For 1 substance, adherence of GBS strain COH31 to immobilized human fibrinogen (0.1 µM per well), percent of inoculum bound (% of inoculum) results are on record in publication PMC3464228.

This assay has as its target purified human fibrinogen (human) (UniProt P02671).
UniProt P02671, sequence (P02671 36-866, chain 1 of 3): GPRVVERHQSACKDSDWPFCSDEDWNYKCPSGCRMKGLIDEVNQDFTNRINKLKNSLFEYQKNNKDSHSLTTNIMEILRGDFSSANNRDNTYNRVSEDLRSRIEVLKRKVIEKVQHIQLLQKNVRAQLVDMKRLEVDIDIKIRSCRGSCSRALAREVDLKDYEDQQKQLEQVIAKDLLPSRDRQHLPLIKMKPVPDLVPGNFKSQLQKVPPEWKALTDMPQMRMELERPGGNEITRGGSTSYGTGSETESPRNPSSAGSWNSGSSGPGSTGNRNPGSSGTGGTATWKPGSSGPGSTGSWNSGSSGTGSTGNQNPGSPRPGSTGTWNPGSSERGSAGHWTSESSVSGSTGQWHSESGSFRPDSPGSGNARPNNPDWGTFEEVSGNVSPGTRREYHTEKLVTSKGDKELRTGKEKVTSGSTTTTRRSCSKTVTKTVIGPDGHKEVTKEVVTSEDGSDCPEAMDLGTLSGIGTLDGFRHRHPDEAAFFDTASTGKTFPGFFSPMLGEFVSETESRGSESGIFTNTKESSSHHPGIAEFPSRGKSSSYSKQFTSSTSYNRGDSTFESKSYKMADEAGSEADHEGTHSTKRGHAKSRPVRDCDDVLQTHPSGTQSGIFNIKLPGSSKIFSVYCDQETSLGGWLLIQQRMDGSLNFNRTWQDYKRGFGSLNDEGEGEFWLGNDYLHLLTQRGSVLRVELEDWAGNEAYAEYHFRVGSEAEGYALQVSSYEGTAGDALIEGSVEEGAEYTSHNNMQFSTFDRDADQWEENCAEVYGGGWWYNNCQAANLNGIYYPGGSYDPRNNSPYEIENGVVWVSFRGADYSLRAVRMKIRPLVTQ
UniProt P02671, sequence (P02675 45-491, chain 2 of 3, further chain): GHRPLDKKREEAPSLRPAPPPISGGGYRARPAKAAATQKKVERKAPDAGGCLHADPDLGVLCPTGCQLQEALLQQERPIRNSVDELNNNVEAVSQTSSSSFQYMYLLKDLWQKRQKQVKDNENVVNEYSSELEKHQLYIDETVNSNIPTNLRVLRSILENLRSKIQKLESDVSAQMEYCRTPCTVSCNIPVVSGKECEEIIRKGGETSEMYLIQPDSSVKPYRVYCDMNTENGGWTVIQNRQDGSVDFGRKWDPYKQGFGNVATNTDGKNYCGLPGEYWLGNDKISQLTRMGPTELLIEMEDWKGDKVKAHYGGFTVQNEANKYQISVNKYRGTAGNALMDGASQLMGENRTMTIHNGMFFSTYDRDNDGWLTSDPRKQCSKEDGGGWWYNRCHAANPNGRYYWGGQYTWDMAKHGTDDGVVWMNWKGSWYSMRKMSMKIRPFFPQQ
UniProt P02671, sequence (P02679 27-453, chain 3 of 3, further chain): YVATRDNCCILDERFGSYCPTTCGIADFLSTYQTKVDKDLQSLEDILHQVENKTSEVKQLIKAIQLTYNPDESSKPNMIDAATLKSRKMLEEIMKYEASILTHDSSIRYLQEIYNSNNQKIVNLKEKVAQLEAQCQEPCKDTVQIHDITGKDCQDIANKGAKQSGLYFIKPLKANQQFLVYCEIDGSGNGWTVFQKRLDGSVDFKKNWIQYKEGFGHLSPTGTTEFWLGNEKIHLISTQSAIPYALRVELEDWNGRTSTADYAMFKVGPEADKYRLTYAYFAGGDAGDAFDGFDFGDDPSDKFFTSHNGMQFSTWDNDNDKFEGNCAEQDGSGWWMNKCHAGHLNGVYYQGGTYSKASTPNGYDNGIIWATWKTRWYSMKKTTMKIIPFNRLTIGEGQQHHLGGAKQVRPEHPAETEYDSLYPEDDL

With “serine-rich repeat glycoprotein Srr1 of Streptococcus agalactiae (native, surface expressed) (natural protein)”, the adherence of GBS strain COH31 to immobilized human fibrinogen (0.1 µM per well), percent of inoculum bound (% of inoculum) turned out to be 16.
